Patent US20170269080A1 (VIRGINIA COMMONWEALTH UNIVERSITY, published 2017)

T1: PSGL-1 (sLe^x-capped, sialylated) on PSGL-1 CHO cells (UniProt Q14242 42-412, sLe^x-capped (alpha2,3-sialylated, alpha1,3-fucosylated glycan))
T1 construct: whole, on cells; also called sLe^x-modified PSGL-1; sialylated PSGL-1
T1 sequence: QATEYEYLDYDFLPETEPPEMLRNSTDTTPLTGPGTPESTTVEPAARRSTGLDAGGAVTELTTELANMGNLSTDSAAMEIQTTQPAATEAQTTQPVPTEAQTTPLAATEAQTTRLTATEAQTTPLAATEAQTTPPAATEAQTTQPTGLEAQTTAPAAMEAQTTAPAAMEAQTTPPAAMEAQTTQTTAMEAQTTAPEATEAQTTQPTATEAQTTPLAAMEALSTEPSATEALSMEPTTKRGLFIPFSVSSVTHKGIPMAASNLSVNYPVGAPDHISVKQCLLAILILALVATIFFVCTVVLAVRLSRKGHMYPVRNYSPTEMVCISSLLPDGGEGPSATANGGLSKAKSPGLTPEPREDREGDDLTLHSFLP

B1: GST-OmpA (N-terminal glutathione-S-transferase-tagged A. phagocytophilum OmpA without signal sequence) (other)
chain: CGTLLPDSNVGVGRHDLGSHRSVAFAKKVEKVYFDIGKYDLKGPGKKVILELVEQLRQDDSMYLVVIGHADATGTEEYSLALGEKRANAVKQFIIGCDKSLAPRVTTQSRGKAEPEVLVYSTDAQEVEKANAQNRRAVIVVEFAHIPRSGVADMHAPVASSITSENSNASAEGEDMEASEFSSAIAN
notes: also called GST-tagged Aph OmpA; GST-ApOmpA; not shown: glutathione-S-transferase (GST) tag, N-terminal, from vector pDest-15
B2: GST-Asp14 (N-terminal glutathione-S-transferase-tagged A. phagocytophilum Asp14) (other)
chain: MIPLAPWKSISVVYMSGSDEYKEIIKQCIGSVKEVFGEGRFDDVVASIMKMQEKVLASSMQQDDTGTVGQIESGEGSGARLSDEQVQQLMNSIREEFKDDLRAIKRRILKLERAVYGANTPKES
notes: Coding region of asp14 (13.8 kDa) fused to GST; also called recombinant Asp14; not shown: glutathione-S-transferase (GST) tag, N-terminal, from vector pDest-15

Legend:
[1] = target: T1, PSGL-1 (sLe^x-capped, sialylated) on …; assay: PSGL-1 CHO cells preincubated with GST-OmpA, Aph adherence counted (competition with the bacteria)
[2] = target: the molecule itself; assay: non-reducing SDS-PAGE and Western blot with anti-Asp14

Row | Binder | reduction of Aph binding to sLe^x-modified PSGL-1 relative to GST alone [1] [%] | binding result [2]
1 | B1 | ~60 | –
2 | B2 | – | binds
